Article PMC10866667, “CTRP4/interleukin-6 receptor signaling ameliorates autoimmune encephalomyelitis by suppressing Th17 cell differentiation” (The Journal of Clinical Investigation, 2023)

T1: IL-6 receptor (IL-6R), in Jurkat cell membrane extract (UniProt P08887 20-468)
T1 construct: IL-6 receptor in membrane protein or membrane extract of Jurkat cells; also called IL-6Rα; source: Jurkat cells, membrane extract
T1 sequence (looked up): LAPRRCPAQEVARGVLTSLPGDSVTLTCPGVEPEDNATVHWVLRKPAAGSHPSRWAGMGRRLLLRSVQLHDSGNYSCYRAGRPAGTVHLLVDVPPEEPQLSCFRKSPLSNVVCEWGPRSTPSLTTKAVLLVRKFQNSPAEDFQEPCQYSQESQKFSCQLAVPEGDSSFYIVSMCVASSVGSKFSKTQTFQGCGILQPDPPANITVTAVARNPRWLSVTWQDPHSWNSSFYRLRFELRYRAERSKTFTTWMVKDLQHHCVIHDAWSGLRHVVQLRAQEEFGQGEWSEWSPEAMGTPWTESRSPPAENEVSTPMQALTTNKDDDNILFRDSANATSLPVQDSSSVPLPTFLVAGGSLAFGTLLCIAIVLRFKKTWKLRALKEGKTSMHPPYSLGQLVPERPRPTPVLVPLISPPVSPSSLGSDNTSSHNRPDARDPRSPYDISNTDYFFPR


Assays:
[1] = target: T1, IL-6 receptor (IL-6R), in Jurkat cell …; assay: radioligand binding; saturation: equivalent quantities of Jurkat cell membrane extract with 2-fold serial dilutions of 125I-CTRP4; nonspecific binding with 500-fold excess of CTRP4; 24 hours at 4°C, 25% PEG, γ counter; conditions: one partner purified
[2] = target: T1, IL-6 receptor (IL-6R), in Jurkat cell …; assay: radioligand binding; competition: Jurkat cell membrane extract and 125I-CTRP4 with different concentrations of unlabeled CTRP4, OSM or IL-6; 24 hours at 4°C, 25% PEG, γ counter; conditions: one partner purified

125I-CTRP4, sequence (Q9BXJ3 17-329): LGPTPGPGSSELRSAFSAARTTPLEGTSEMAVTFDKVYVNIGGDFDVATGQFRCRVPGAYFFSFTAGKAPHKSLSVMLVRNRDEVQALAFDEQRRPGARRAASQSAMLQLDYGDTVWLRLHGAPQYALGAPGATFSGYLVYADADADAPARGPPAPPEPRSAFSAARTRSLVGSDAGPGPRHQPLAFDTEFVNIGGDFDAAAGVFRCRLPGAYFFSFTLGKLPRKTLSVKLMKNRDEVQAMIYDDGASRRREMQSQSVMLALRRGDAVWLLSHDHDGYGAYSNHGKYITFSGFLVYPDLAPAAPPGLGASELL

Binder	Kd [1] [nM]	IC50 [2] [nM]
125I-CTRP4 (natural protein, 125I label (chloramine T), rhCTRP4 protein purified from CTRP4-CHO cells; also called radio-iodinated CTRP4; 125I-labeled CTRP4) not shown	3.94	–
rhCTRP4 protein (unlabeled) (natural protein, rhCTRP4 protein purified from CTRP4-CHO cells; also called unlabeled CTRP4; recombinant CTRP4 protein) not shown	–	77.2
